Assay [1] deals with PI3Kα-RBD, PIK3CA-RBD(157-289) (human) (UniProt P42336). The assay can be described thus: ITC; RAS GTPase (GMPPNP-bound, 300–500 μM) in the syringe, PI3K isoform or PI3Kα-RBD (30–50 μM) in the cell; 25 °C; 20 mM HEPES pH 7.4, 150 mM NaCl, 5 mM MgCl2, 1 mM TCEP; one set of sites; two replicates. For orientation: In ITC the heat of successive injections is recorded.
In assay [2] the target is PI3Kα: p110α(2-1068) W1057A/I1058A/F1059A + p85(322-600) (human) (UniProt P42336). Put plainly: ITC; GMPPNP-bound RAS (300–500 μM) in the syringe, PI3K isoform or PI3Kα-RBD (30–50 μM) in the cell; 25 °C; 20 mM HEPES pH 7.4, 150 mM NaCl, 5 mM MgCl2, 1 mM TCEP; one set of sites; duplicates.
Another assay deals with PI3Kα-RBD-T208A (human) (UniProt P42336). The assay can be described thus: ITC; RAS GTPase (GMPPNP-bound, 300–500 μM) in the syringe, PI3K isoform or PI3Kα-RBD (30–50 μM) in the cell; 25 °C; 20 mM HEPES pH 7.4, 150 mM NaCl, 5 mM MgCl2, 1 mM TCEP; one set of sites; two replicates.
For a further assay, the target named is PI3Kα-RBD-K206A (human) (UniProt P42336). The description is as above.
The target in another assay is PI3Kα-RBD-K210A (human) (UniProt P42336). Described as above.
A further assay addresses PI3Kα-RBD-Q205A (human) (UniProt P42336). Described as above.
Another assay addresses PI3Kα-RBD-S231A (human) (UniProt P42336). Described as above.
Assay [3] addresses PI3Kδ: p110δ(1-1044) + p85(322-600) (human) (UniProt O00329). Put plainly: ITC; GMPPNP-bound RAS (300–500 μM) in the syringe, PI3K isoform or PI3Kα-RBD (30–50 μM) in the cell; 25 °C; 20 mM HEPES pH 7.4, 150 mM NaCl, 5 mM MgCl2, 1 mM TCEP; one set of sites; duplicates.
The target in assay [4] is p110α-RBD(157-289) K206A (human) (UniProt P42336). The assay is described as above.
The target of assay [5] is p110α-RBD(157-289) K210A (human) (UniProt P42336). Described as above.
The target in assay [6] is p110α-RBD(157-289) T208A (human) (UniProt P42336). Described as above.
The target in assay [7] is PI3Kα-RBD, PIK3CA-RBD(157-289) (human) (UniProt P42336). Described as above.

The values below come from publication PMC11718114.

The Kd is the free concentration of one partner at which half of the binding sites on the other are occupied at equilibrium, for simple one-to-one binding. By stoichiometry N is commonly meant the number of molecules, sites or subunits per partner or assembly.

On to “RRAS2-G23V, GMPPNP-bound (from UniProt P62070 1-179) (domain or fragment)”, for which, in [1], the Kd is 12.8 µM and the stoichiometry N was 0.91 sites.

In assay [1], “RRAS2-G23D, GMPPNP-bound (from UniProt P62070 1-179) (domain or fragment)” yielded a Kd of 6.4 µM and a stoichiometry N of 0.75 sites.

With “RRAS2-R63A, GMPPNP-bound (from UniProt P62070 1-179) (domain or fragment)”, in assay [1], the Kd is 6.4 µM and the stoichiometry N stood at 0.9 sites.

Regarding “RRAS2-F75A, GMPPNP-bound (from UniProt P62070 1-179) (domain or fragment)”, in assay [1], the Kd turned out to be 21.5 µM and the stoichiometry N was 1.11 sites.

In assay [1], “RRAS2-D42E, GMPPNP-bound (from UniProt P62070 1-179) (domain or fragment)” showed a Kd of 16.1 µM and a stoichiometry N of 0.89 sites.

Take “RRAS2-D42A, GMPPNP-bound (from UniProt P62070 1-179) (domain or fragment)”: in assay [1], the Kd was found to be 66.9 µM and the stoichiometry N worked out at 1.2 sites.

With “RRAS2-Y38F, GMPPNP-bound (from UniProt P62070 1-179) (domain or fragment)”, in assay [1], the Kd was found to be 4.3 µM and the stoichiometry N amounted to 0.92 sites.

In assay [1], “RRAS2-M78A, GMPPNP-bound (from UniProt P62070 1-179) (domain or fragment)” had a Kd of 134 µM and a stoichiometry N of 1.2 sites.

On to “MRAS (wild type) (from UniProt O14807 1-178) (domain or fragment)”, for which, in assay [2], the Kd came out at 5.3 µM and the dH was -17 kcal/mol.

“RRAS2-Q72H, GMPPNP-bound (from UniProt P62070 1-179) (domain or fragment)”: in assay [1], the dissociation constant (Kd) was determined as 14.2 µM and the stoichiometry N worked out at 0.85 sites.

In [1], “RRAS2-T52R, GMPPNP-bound (from UniProt P62070 1-179) (domain or fragment)” registered a Kd of 28.5 µM and a stoichiometry N of 1.01 sites.

In assay [1], “RRAS2-Q72L, GMPPNP-bound (from UniProt P62070 1-179) (domain or fragment)” returned a Kd of 8.5 µM and a stoichiometry N of 0.88 sites.

For the substance “MRAS, GMPPNP-bound (from UniProt O14807 1-178) (domain or fragment)”, in the assay with PI3Kα-RBD-T208A (human), the Kd came out at 19.5 µM and the stoichiometry N worked out at 0.93 sites.

In assay [1], “RRAS2-E48A, GMPPNP-bound (from UniProt P62070 1-179) (domain or fragment)” returned a Kd of 32.4 µM and a stoichiometry N of 0.92 sites.

“RRAS2, GMPPNP-bound (from UniProt P62070 1-179) (domain or fragment)”: the Kd with PI3Kα-RBD-K206A (human) worked out at 107 µM; in the assay with PI3Kα-RBD-K210A (human), 41.7 µM; with PI3Kα-RBD-Q205A (human) it was 8.2 µM; with PI3Kα-RBD-S231A (human), 8.3 µM; in the assay with PI3Kα-RBD-T208A (human), 45 µM. The stoichiometry N in the assay with PI3Kα-RBD-K206A (human) turned out to be 0.92 sites; in the assay with PI3Kα-RBD-K210A (human), 0.81 sites; with PI3Kα-RBD-Q205A (human), 0.86 sites; in the assay with PI3Kα-RBD-S231A (human), 0.88 sites; with PI3Kα-RBD-T208A (human) it was 0.9 sites.

In assay [1], “RRAS2-E74A, GMPPNP-bound (from UniProt P62070 1-179) (domain or fragment)” showed a Kd of 12.4 µM and a stoichiometry N of 0.83 sites.

Consider “RRAS2 (wild type) (from UniProt P62070 1-179) (domain or fragment)”, for which the Kd worked out at 3.9 µM in [2] and 14 µM in [3]. In addition, the dH in assay [2] was -17 kcal/mol. This substance gave a fold reduction in affinity against wild-type p110α-RBD in assay [4] of 15 fold. In addition, the fold decrease in affinity against wild-type p110α-RBD in [5] and in assay [6] was 5 fold throughout.

In assay [1], “RRAS2-D44A, GMPPNP-bound (from UniProt P62070 1-179) (domain or fragment)” registered a Kd of 28.2 µM and a stoichiometry N of 0.81 sites.

“RRAS2 T52R (from UniProt P62070 1-179) (domain or fragment)” yielded a fold reduction in binding affinity against wild-type RRAS2 in [7] of 7 fold.
